From the supplement of paper PMC10567573

B1: SPOPL (parent)
chain: YTGRAPNLDKMADNLLAAADKYAL
B2: UBE2R2 (parent)
chain: DPQSGELPSERWNPTQNVRTILLS

Variants of: B1
Assay: protein stability index of a GFP-peptide fusion (GPS, HEK-293T) (PSI 1-6); higher = more stable
Settings: c terminus: a fixed tail appended
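Also: lentivirally expressed fusions sorted by FACS into six bins by GFP to DsRed ratio, PSI derived from sequencing read proportions per bin multiplied by bin number.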

| Variant | protein stability index |
| --- | --- |
| YTGRAPNLDKMADNLLAAADAYAL [K21A] | 2.04 |
| YTGRAPNLDKMADNLLAAADCYAL [K21C] | 1.88 |
| YTGRAPNLDKMADNLLAAADDYAL [K21D] | 2.36 |
| YTGRAPNLDKMADNLLAAADEYAL [K21E] | 3.6 |
| YTGRAPNLDKMADNLLAAADGYAL [K21G] | 1.81 |
| YTGRAPNLDKMADNLLAAADHYAL [K21H] | 1.89 |
| YTGRAPNLDKMADNLLAAADIYAL [K21I] | 1.42 |
| YTGRAPNLDKMADNLLAAADLYAL [K21L] | 2.02 |
| YTGRAPNLDKMADNLLAAADMYAL [K21M] | 1.65 |
| YTGRAPNLDKMADNLLAAADNYAL [K21N] | 2.11 |
| YTGRAPNLDKMADNLLAAADPYAL [K21P] | 2.48 |
| YTGRAPNLDKMADNLLAAADQYAL [K21Q] | 3.78 |
| YTGRAPNLDKMADNLLAAADSYAL [K21S] | 1.92 |
| YTGRAPNLDKMADNLLAAADVYAL [K21V] | 2.53 |
| YTGRAPNLDKMADNLLAAADWYAL [K21W] | 2.02 |
| YTGRAPNLDKMADNLLAAADYYAL [K21Y] | 1.13 |
| YTGRAPNLDKMADNLLAAADKDAL [Y22D] | 2.03 |
| YTGRAPNLDKMADNLLAAADKEAL [Y22E] | 3.04 |
| YTGRAPNLDKMADNLLAAADKFAL [Y22F] | 1.92 |
| YTGRAPNLDKMADNLLAAADKGAL [Y22G] | 3.2 |
| YTGRAPNLDKMADNLLAAADKHAL [Y22H] | 2.18 |
| YTGRAPNLDKMADNLLAAADKIAL [Y22I] | 2.22 |
| YTGRAPNLDKMADNLLAAADKKAL [Y22K] | 3.07 |
| YTGRAPNLDKMADNLLAAADKLAL [Y22L] | 1.61 |

| Variant | protein stability index |
| --- | --- |
| YTGRAPNLDKMADNLLAAADKMAL [Y22M] | 1.93 |
| YTGRAPNLDKMADNLLAAADKNAL [Y22N] | 3.3 |
| YTGRAPNLDKMADNLLAAADKPAL [Y22P] | 2.73 |
| YTGRAPNLDKMADNLLAAADKQAL [Y22Q] | 2.17 |
| YTGRAPNLDKMADNLLAAADKRAL [Y22R] | 3.05 |
| YTGRAPNLDKMADNLLAAADKSAL [Y22S] | 3.66 |
| YTGRAPNLDKMADNLLAAADKTAL [Y22T] | 2.72 |
| YTGRAPNLDKMADNLLAAADKVAL [Y22V] | 2.27 |
| YTGRAPNLDKMADNLLAAADKWAL [Y22W] | 1.67 |
| YTGRAPNLDKMADNLLAAADKYCL [A23C] | 2.57 |
| YTGRAPNLDKMADNLLAAADKYDL [A23D] | 2.45 |
| YTGRAPNLDKMADNLLAAADKYEL [A23E] | 2.77 |
| YTGRAPNLDKMADNLLAAADKYFL [A23F] | 1.81 |
| YTGRAPNLDKMADNLLAAADKYGL [A23G] | 1.83 |
| YTGRAPNLDKMADNLLAAADKYHL [A23H] | 1.78 |
| YTGRAPNLDKMADNLLAAADKYIL [A23I] | 1.65 |
| YTGRAPNLDKMADNLLAAADKYKL [A23K] | 2.37 |
| YTGRAPNLDKMADNLLAAADKYLL [A23L] | 1.67 |
| YTGRAPNLDKMADNLLAAADKYML [A23M] | 2.18 |
| YTGRAPNLDKMADNLLAAADKYNL [A23N] | 2.3 |
| YTGRAPNLDKMADNLLAAADKYPL [A23P] | 2.24 |
| YTGRAPNLDKMADNLLAAADKYQL [A23Q] | 2.4 |
| YTGRAPNLDKMADNLLAAADKYRL [A23R] | 1.91 |
| YTGRAPNLDKMADNLLAAADKYSL [A23S] | 1.97 |

| Variant | protein stability index |
| --- | --- |
| YTGRAPNLDKMADNLLAAADKYTL [A23T] | 2.71 |
| YTGRAPNLDKMADNLLAAADKYVL [A23V] | 1.54 |
| YTGRAPNLDKMADNLLAAADKYWL [A23W] | 1.22 |
| YTGRAPNLDKMADNLLAAADKYYL [A23Y] | 2.02 |
| YTGRAPNLDKMADNLLAAADKYAA [L24A] | 2.02 |
| YTGRAPNLDKMADNLLAAADKYAC [L24C] | 2.37 |
| YTGRAPNLDKMADNLLAAADKYAD [L24D] | 3.62 |
| YTGRAPNLDKMADNLLAAADKYAE [L24E] | 3.11 |
| YTGRAPNLDKMADNLLAAADKYAF [L24F] | 2.01 |
| YTGRAPNLDKMADNLLAAADKYAG [L24G] | 2.78 |
| YTGRAPNLDKMADNLLAAADKYAH [L24H] | 2.49 |
| YTGRAPNLDKMADNLLAAADKYAI [L24I] | 2.02 |
| YTGRAPNLDKMADNLLAAADKYAK [L24K] | 2.55 |
| YTGRAPNLDKMADNLLAAADKYAM [L24M] | 2.33 |
| YTGRAPNLDKMADNLLAAADKYAN [L24N] | 2.66 |
| YTGRAPNLDKMADNLLAAADKYAP [L24P] | 2.17 |
| YTGRAPNLDKMADNLLAAADKYAQ [L24Q] | 2.16 |
| YTGRAPNLDKMADNLLAAADKYAR [L24R] | 2.24 |
| YTGRAPNLDKMADNLLAAADKYAS [L24S] | 2.73 |
| YTGRAPNLDKMADNLLAAADKYAT [L24T] | 2.42 |
| YTGRAPNLDKMADNLLAAADKYAV [L24V] | 2 |
| YTGRAPNLDKMADNLLAAADKYAW [L24W] | 1.86 |
| YTGRAPNLDKMADNLLAAADKYAY [L24Y] | 1.89 |

Variants of: B2
Assay: as above
Settings: c terminus: a fixed tail appended

| Variant | protein stability index |
| --- | --- |
| APQSGELPSERWNPTQNVRTILLS [D1A] | 2.69 |
| CPQSGELPSERWNPTQNVRTILLS [D1C] | 3.93 |
| EPQSGELPSERWNPTQNVRTILLS [D1E] | 3.31 |
| FPQSGELPSERWNPTQNVRTILLS [D1F] | 2.58 |
| GPQSGELPSERWNPTQNVRTILLS [D1G] | 3.26 |
| HPQSGELPSERWNPTQNVRTILLS [D1H] | 3.34 |
| IPQSGELPSERWNPTQNVRTILLS [D1I] | 2.67 |
| KPQSGELPSERWNPTQNVRTILLS [D1K] | 3.7 |
| LPQSGELPSERWNPTQNVRTILLS [D1L] | 3.58 |
| NPQSGELPSERWNPTQNVRTILLS [D1N] | 3.09 |
| QPQSGELPSERWNPTQNVRTILLS [D1Q] | 3.88 |
| RPQSGELPSERWNPTQNVRTILLS [D1R] | 3.17 |
| SPQSGELPSERWNPTQNVRTILLS [D1S] | 2.25 |
| TPQSGELPSERWNPTQNVRTILLS [D1T] | 2.63 |
| VPQSGELPSERWNPTQNVRTILLS [D1V] | 2.35 |
| DAQSGELPSERWNPTQNVRTILLS [P2A] | 3.66 |
| DEQSGELPSERWNPTQNVRTILLS [P2E] | 3.59 |
| DFQSGELPSERWNPTQNVRTILLS [P2F] | 2.81 |
| DGQSGELPSERWNPTQNVRTILLS [P2G] | 3.06 |
| DHQSGELPSERWNPTQNVRTILLS [P2H] | 2.88 |
| DIQSGELPSERWNPTQNVRTILLS [P2I] | 2.5 |
| DKQSGELPSERWNPTQNVRTILLS [P2K] | 3.95 |
| DLQSGELPSERWNPTQNVRTILLS [P2L] | 2.99 |
